The source of these data is IntAct's records for PubMed 16778766.

First the molecules themselves.
B1: Estrogen receptor (Mus musculus), P19785 (parent)
chain: MTMTLHTKASGMALLHQIQGNELEPLNRPQLKMPMERALGEVYVDNSKPTVFNYPEGAAYEFNAAAAAAAAASAPVYGQSGIAYGPGSEAAAFSANSLGAFPQLNSVSPSPLMLLHPPPQLSPFLHPHGQQVPYYLENEPSAYAVRDTGPPAFYRSNSDNRRQNGRERLSSSNEKGNMIMESAKETRYCAVCNDYASGYHYGVWSCEGCKAFFKRSIQGHNDYMCPATNQCTIDKNRRKSCQACRLRKCYEVGMMKGGIRKDRRGGRMLKHKRQRDDLEGRNEMGASGDMRAANLWPSPLVIKHTKKNSPALSLTADQMVSALLDAEPPMIYSEYDPSRPFSEASMMGLLTNLADRELVHMINWAKRVPGFGDLNLHDQVHLLECAWLEILMIGLVWRSMEHPGKLLFAPNLLLDRNQGKCVEGMVEIFDMLLATSSRFRMMNLQGEEFVCLKSIILLNSGVYTFLSSTLKSLEEKDHIHRVLDKITDTLIHLMAKAGLTLQQQHRRLAQLLLILSHIRHMSNKGMEHLYNMKCKNVVPLYDLLLEMLDAHRLHAPASRMGVPPEEPSQTQLATTSSTSAHSLQTYYIPPEAEGFPNTI

The variants in this test derive from B1. As to conditions: with cnot1_human CNOT1, A5YKK6.
Chain of cnot1_human CNOT1, A5YKK6 (A5YKK6 whole entry): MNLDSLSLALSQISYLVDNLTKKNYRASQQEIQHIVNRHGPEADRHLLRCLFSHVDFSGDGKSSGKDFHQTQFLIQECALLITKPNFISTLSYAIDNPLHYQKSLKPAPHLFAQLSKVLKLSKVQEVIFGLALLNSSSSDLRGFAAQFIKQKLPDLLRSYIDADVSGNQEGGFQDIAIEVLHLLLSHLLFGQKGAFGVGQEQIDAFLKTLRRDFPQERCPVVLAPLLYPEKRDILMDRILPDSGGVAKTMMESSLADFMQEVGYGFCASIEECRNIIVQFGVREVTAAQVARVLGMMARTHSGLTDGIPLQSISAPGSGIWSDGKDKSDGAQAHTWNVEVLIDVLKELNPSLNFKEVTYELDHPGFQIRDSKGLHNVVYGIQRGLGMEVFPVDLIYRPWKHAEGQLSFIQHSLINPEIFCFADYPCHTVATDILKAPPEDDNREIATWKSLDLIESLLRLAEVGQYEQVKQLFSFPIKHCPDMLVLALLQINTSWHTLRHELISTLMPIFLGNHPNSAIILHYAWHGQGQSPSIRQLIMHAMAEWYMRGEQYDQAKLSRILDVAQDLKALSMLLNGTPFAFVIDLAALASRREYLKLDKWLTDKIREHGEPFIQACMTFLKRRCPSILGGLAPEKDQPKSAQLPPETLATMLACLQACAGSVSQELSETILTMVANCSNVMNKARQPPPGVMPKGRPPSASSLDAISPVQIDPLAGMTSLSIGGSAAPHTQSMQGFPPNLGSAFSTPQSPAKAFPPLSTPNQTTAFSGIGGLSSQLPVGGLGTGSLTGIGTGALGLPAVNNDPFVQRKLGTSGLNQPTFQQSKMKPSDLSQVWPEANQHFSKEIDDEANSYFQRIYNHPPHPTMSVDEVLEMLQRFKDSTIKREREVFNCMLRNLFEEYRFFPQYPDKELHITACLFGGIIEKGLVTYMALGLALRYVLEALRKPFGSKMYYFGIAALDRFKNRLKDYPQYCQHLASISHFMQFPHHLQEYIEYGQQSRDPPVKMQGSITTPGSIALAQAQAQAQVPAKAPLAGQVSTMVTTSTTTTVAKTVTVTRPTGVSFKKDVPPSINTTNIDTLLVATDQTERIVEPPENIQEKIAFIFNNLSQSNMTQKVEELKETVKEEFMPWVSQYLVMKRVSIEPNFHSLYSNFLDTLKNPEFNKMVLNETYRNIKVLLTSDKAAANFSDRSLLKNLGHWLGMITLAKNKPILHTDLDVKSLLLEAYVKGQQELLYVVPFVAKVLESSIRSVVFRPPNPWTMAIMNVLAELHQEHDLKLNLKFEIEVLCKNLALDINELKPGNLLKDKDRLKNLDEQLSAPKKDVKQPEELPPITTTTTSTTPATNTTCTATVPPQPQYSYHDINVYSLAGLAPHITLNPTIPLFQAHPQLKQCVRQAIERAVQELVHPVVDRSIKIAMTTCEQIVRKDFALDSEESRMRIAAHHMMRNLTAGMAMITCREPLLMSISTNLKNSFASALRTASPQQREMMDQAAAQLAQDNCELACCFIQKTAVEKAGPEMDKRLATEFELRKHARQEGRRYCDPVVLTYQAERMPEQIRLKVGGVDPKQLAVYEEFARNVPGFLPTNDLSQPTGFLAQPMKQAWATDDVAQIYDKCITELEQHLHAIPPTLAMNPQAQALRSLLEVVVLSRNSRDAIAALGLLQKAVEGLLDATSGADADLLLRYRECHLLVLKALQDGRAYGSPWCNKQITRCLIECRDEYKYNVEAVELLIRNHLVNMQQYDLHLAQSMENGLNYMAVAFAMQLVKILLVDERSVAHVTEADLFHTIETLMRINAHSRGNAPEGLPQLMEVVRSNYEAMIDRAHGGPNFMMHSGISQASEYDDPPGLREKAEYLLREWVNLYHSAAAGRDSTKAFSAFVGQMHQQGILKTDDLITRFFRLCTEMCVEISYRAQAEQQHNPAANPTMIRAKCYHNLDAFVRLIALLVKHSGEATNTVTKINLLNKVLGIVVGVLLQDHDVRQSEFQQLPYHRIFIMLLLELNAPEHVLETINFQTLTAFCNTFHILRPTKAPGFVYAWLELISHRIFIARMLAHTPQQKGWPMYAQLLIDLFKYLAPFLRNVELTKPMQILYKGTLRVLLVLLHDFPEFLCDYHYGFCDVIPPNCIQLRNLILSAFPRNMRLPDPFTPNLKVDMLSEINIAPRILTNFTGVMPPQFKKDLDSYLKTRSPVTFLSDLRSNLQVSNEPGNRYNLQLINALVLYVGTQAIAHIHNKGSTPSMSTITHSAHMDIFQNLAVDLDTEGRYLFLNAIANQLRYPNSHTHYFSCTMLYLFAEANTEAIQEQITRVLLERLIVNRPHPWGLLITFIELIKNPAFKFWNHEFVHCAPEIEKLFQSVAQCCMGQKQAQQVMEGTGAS
As for M547A, the “effect of a mutation on the interaction” value was “disrupting interaction”. The value for L548A was “disrupting interaction”.
